Measured values: patent US20180258163A1 (Chugai, published 2018)

Experiments:
Test in all cases: SPR, Ab captured on Protein L, 20C
[1] = molecular target: T1, soluble human FcγRIa (human, UniProt P12314 16-292, limits assumed)
T1 construct: soluble His-tagged form; also called hFcγRIa
Method: (§1) Soluble FcγRIa and FcγRIIIa in both human and cynomolgus monkey were produced in the form of His-tagged molecules by methods known to those of ordinary skill in the art. An appropriate amount of rProtein L (BioVision) was immobilized onto the Sensor chip CM4 (GE Healthcare) by the amine coupling method and antibody of interest was captured. Next, soluble FcγRIa or FcγRIIIa was injected with a running buffer (used as a reference solution), and was made to interact with the antibodies captured onto the sensor chip. HBS-EP+ (GE Healthcare) was used as the running buffer, and HBS-EP+ was also used to dilute the soluble FcγRIa or FcγRIIIa. To regenerate the sensor chip, 10 mM glycine-HCl at pH 1.5 was used. All measurements were carried out at 20° C.

[2] = molecular target: T2, soluble cynomolgus monkey FcγRIIIa (cynomolgus monkey, UniProt Q8SPW2 17-208, limits assumed)
T2 construct: soluble His-tagged form; also called cynoFcγRIIIa
Method: as §1

[3] = molecular target: T3, soluble human FcγRIIIa (human, UniProt P08637 17-208, limits assumed)
T3 construct: soluble His-tagged form; also called hFcγRIIIa
Method: as §1

Measured: binding result

T1 sequence (P12314 16-292 limits assumed): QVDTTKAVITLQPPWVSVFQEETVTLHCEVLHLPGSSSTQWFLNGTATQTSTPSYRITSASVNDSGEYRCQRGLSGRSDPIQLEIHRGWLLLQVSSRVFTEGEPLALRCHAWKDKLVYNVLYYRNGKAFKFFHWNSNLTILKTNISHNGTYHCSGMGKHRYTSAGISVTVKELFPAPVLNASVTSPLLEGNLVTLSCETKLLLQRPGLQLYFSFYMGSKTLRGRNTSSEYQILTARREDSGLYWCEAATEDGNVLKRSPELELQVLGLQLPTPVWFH
T3 sequence (P08637 17-208 limits assumed): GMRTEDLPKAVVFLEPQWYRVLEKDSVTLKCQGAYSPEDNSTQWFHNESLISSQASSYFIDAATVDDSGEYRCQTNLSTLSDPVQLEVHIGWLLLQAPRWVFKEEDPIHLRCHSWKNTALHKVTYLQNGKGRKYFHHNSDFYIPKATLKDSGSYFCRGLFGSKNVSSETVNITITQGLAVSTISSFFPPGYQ
T2 sequence (Q8SPW2 17-208 limits assumed): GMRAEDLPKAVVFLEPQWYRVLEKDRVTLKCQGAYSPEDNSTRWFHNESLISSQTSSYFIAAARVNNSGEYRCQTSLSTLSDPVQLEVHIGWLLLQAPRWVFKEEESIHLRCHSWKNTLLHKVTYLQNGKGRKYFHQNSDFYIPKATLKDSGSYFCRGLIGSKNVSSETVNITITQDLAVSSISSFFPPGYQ

B1: H1009/L395-F1974m (antibody)
heavy: QVQLVESGGGLVQPGGSLRLSCAASGFTFSDYYLSWVRQAPGKGLEWVGLIRNKDNYHTPEYSASVKGRFTISRDDSKNSLYLTMSDLKTEDTAVYYCARENHRYDVELAYWGQGTLVTVSSASTKGPSVFPLAPSSKSTSGGTAALGCLVKDYFPEPVTVSWNSGALTSGVHTFPAVLQSSGLYSLSSVVTVPSSSLGTQTYICNVNHKPSNTKVDKKVEPKSCDKTHTCPPCPAPELRRGPSVFLFPPKPKDTLMISRTPEVTCVVVDVSHEDPEVKFNWYVDGVEVHNAKTKPREEQYNSTYRVVSVLTVLHQDWLNGKEYKCKVSNKGLPSSIEKTISKAKGQPREPQVYTLPPSREEMTKNQVSLTCLVKGFYPSDIAVEWESNGQPENNYKTTPPVLDSDGSFFLYSKLTVDKSRWQQGNVFSCSVLHEALHAHTTRKELSLSP
light: DIQMTQSPSSLSASVGDRVTITCRASEIIYSYLAWYQQKPGKAPKLLIYKAKTHADGVPSRFSGSGSGTDFTFTISSLQPEDIATYYCKHHFGFPRTFGQGTKVEIKRTVAAPSVFIFPPSDEQLKSGTASVVCLLNNFYPREAKVQWKVDNALQSGNSQESVTEQDSKDSTYSLSSTLTLSKADYEKHKVYACEVTHQGLSSPVTKSFNRGEC
notes: copies: 2 + 2
no binding: all assays above
